{
  "source": "the supplement of paper PMC9112550",
  "about": "“Optimization of the antimicrobial peptide Bac7 by deep mutational scanning” (BMC Biology, 2022);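 note: peptides expressed intracellularly from a pBAD plasmid library in pooled LB shake-flask culture, induced with 0.3% L-arabinose, DNA abundance read by NGS, three biological replicates, DESeq2 with apeglm shrinkage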",
  "data": [
    {"system": "Escherichia coli TOP10", "experiment": "shrunken log2 fold change of peptide-encoding DNA abundance (4.5 h post-induction vs induction); higher = less antimicrobial activity (less host growth inhibition)", "details": "time post-induction: 4.5 h; library: site-saturation at positions 5, 18, 19, 20", "values": [
      {"sequence": "RRIRMRPPRLPRPRPRPYWLPRP", "shrunken log2 fold change": -0.0329},
      {"sequence": "RRIRHRPPRLPRPRPRPCDCPRP", "shrunken log2 fold change": -0.138},
      {"sequence": "RRIRMRPPRLPRPRPRPETWPRP", "shrunken log2 fold change": 1.44},
      {"sequence": "RRIRIRPPRLPRPRPRPIVPPRP", "shrunken log2 fold change": -0.407},
      {"sequence": "RRIRNRPPRLPRPRPRPYGGPRP", "shrunken log2 fold change": -0.0102},
      {"sequence": "RRIRYRPPRLPRPRPRPEMDPRP", "shrunken log2 fold change": -0.338},
      {"sequence": "RRIRQRPPRLPRPRPRPHQGPRP", "shrunken log2 fold change": 0.0866},
      {"sequence": "RRIRTRPPRLPRPRPRPHTGPRP", "shrunken log2 fold change": -0.34},
      {"sequence": "RRIRVRPPRLPRPRPRPESWPRP", "shrunken log2 fold change": 0.28},
      {"sequence": "RRIRDRPPRLPRPRPRPVLIPRP", "shrunken log2 fold change": -0.0161},
      {"sequence": "RRIRHRPPRLPRPRPRPLIVPRP", "shrunken log2 fold change": -0.314},
      {"sequence": "RRIRFRPPRLPRPRPRPSIAPRP", "shrunken log2 fold change": -0.271},
      {"sequence": "RRIRMRPPRLPRPRPRPVCCPRP", "shrunken log2 fold change": 0.496},
      {"sequence": "RRIRFRPPRLPRPRPRPHSDPRP", "shrunken log2 fold change": -0.129},
      {"sequence": "RRIRKRPPRLPRPRPRPPSCPRP", "shrunken log2 fold change": 1.71},
      {"sequence": "RRIRYRPPRLPRPRPRPMHGPRP", "shrunken log2 fold change": 0.00652},
      {"sequence": "RRIRDRPPRLPRPRPRPWYAPRP", "shrunken log2 fold change": 0.00564},
      {"sequence": "RRIRDRPPRLPRPRPRPRTIPRP", "shrunken log2 fold change": -0.018},
      {"sequence": "RRIRFRPPRLPRPRPRPGQMPRP", "shrunken log2 fold change": 0.172},
      {"sequence": "RRIRLRPPRLPRPRPRPWMAPRP", "shrunken log2 fold change": -0.346},
      {"sequence": "RRIRGRPPRLPRPRPRPVNSPRP", "shrunken log2 fold change": 0.0202},
      {"sequence": "RRIRTRPPRLPRPRPRPRCCPRP", "shrunken log2 fold change": 0.0734},
      {"sequence": "RRIRWRPPRLPRPRPRPPPVPRP", "shrunken log2 fold change": 0.931},
      {"sequence": "RRIRDRPPRLPRPRPRPHWMPRP", "shrunken log2 fold change": 0.236},
      {"sequence": "RRIRKRPPRLPRPRPRPLYSPRP", "shrunken log2 fold change": -0.105},
      {"sequence": "RRIRHRPPRLPRPRPRPVPYPRP", "shrunken log2 fold change": -0.246},
      {"sequence": "RRIRDRPPRLPRPRPRPIYNPRP", "shrunken log2 fold change": -0.771},
      {"sequence": "RRIRQRPPRLPRPRPRPTVQPRP", "shrunken log2 fold change": 0.226},
      {"sequence": "RRIRQRPPRLPRPRPRPRFEPRP", "shrunken log2 fold change": 0.0165},
      {"sequence": "RRIRHRPPRLPRPRPRPYVEPRP", "shrunken log2 fold change": 0.0369},
      {"sequence": "RRIRTRPPRLPRPRPRPQPRPRP", "shrunken log2 fold change": 0.439},
      {"sequence": "RRIRLRPPRLPRPRPRPTEYPRP", "shrunken log2 fold change": -0.0401},
      {"sequence": "RRIRNRPPRLPRPRPRPEEPPRP", "shrunken log2 fold change": 0.0512},
      {"sequence": "RRIRGRPPRLPRPRPRPTGCPRP", "shrunken log2 fold change": 0.562},
      {"sequence": "RRIRERPPRLPRPRPRPYPNPRP", "shrunken log2 fold change": -1.19},
      {"sequence": "RRIRVRPPRLPRPRPRPNPPPRP", "shrunken log2 fold change": 0.231},
      {"sequence": "RRIRQRPPRLPRPRPRPVWGPRP", "shrunken log2 fold change": 0.225},
      {"sequence": "RRIRKRPPRLPRPRPRPNSGPRP", "shrunken log2 fold change": 0.0179},
      {"sequence": "RRIRQRPPRLPRPRPRPPMDPRP", "shrunken log2 fold change": -0.0321},
      {"sequence": "RRIRIRPPRLPRPRPRPGMIPRP", "shrunken log2 fold change": -0.309},
      {"sequence": "RRIRERPPRLPRPRPRPQYFPRP", "shrunken log2 fold change": -0.891},
      {"sequence": "RRIRARPPRLPRPRPRPAMEPRP", "shrunken log2 fold change": 0.372},
      {"sequence": "RRIRARPPRLPRPRPRPFPYPRP", "shrunken log2 fold change": -0.164},
      {"sequence": "RRIRMRPPRLPRPRPRPAENPRP", "shrunken log2 fold change": 0.084},
      {"sequence": "RRIRRRPPRLPRPRPRPMFEPRP", "shrunken log2 fold change": 0.266},
      {"sequence": "RRIRIRPPRLPRPRPRPEQRPRP", "shrunken log2 fold change": -0.0838},
      {"sequence": "RRIRFRPPRLPRPRPRPHFIPRP", "shrunken log2 fold change": -0.473},
      {"sequence": "RRIRWRPPRLPRPRPRPHDGPRP", "shrunken log2 fold change": -0.00986},
      {"sequence": "RRIRDRPPRLPRPRPRPEEKPRP", "shrunken log2 fold change": 0.766},
      {"sequence": "RRIRFRPPRLPRPRPRPALHPRP", "shrunken log2 fold change": -0.0349}
    ]}
  ]
}
